Laboratory results from US20260015426A1 (23ANDME, published 2026).
Positions count from the first letter of the chain named. Numbers in names are those of the source.

T1: human IL1RAP (hu-IL1RAP) on human cells (human, UniProt Q9NPH3 21-570)
T1 sequence: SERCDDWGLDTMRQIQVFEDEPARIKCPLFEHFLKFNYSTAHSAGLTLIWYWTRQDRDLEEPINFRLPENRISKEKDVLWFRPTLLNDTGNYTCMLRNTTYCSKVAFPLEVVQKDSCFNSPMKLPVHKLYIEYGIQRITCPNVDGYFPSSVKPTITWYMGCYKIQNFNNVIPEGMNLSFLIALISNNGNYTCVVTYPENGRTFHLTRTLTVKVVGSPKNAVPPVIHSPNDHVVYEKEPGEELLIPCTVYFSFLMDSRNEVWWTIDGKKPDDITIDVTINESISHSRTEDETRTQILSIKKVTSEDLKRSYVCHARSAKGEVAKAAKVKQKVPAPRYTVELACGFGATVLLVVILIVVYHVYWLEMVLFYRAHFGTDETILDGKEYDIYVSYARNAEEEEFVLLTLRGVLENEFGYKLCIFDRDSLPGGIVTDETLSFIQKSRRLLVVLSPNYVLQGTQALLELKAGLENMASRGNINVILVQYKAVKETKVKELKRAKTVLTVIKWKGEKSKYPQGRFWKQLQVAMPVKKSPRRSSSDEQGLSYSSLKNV

T2: hu-M-IL1RAP construct, positions S21-T367 (extracellular domain of the membrane form of human IL1RAP) (human, UniProt Q9NPH3 21-367)
T2 construct: Biotinylated when captured on the Biacore chip
T2 sequence: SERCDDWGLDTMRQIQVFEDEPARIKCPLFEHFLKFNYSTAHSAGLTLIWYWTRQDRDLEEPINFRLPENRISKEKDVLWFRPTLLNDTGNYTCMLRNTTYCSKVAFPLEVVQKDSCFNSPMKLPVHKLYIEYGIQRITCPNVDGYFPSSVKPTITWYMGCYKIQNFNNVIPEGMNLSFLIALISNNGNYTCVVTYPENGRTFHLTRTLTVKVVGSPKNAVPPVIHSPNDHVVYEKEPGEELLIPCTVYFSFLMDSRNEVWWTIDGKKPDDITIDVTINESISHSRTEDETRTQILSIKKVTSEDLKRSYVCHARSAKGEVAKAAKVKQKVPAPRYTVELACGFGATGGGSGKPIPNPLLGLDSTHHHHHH

B1: h11C5_C59Y (C59Y variant of h11C5) (antibody, human IgG1, V domains shown)
VH: EVQLVESGGGLVQPGGSLRLSCAASGFTFSNYAMSWVRQAPGKGLEWVATVTEGGDYNYYLDDVKGRFTISRDNAKNSLYLQMNSLRAEDTAVYYCARDRWPYFFDYWGQGTLVTVSS
VL: DIQMTQSPSSLSASVGDRVTITCRASENIYSNLAWYQQKPGKAPKLLVYGAKNLADGVPSRFSGSGSGTDYTLTISSLQPEDFATYYCQHFWTTPRTFGGGTKVEIK
notes: Human IgG1/kappa constant domains
B2: c11C5_C59A (antibody, IgG1, V domains shown)
VH: EVQLVESGGGLVKPGGSLKLSCAASGFTFSNYAMSWVRQTPEKRLEWVATVTEGGDYNYALDDVKGRFTISRDNANDNLYLQMSHLKSEDSARYYCARDRWPYFFDYWGQGTTLTVSS
VL: DIQMTQSPASLSVSVGETVTITCRASENIYSNLAWYQQKQGRSPQLLVYGAKNLADGVPSRFSGSGSGTQYSLNINSLQSEDFGTYYCQHFWTTPRTFGGGTKLEIK
notes: Murine VL and VH, human CL and IgG1 CH1-CH3 domains
B3: c11C5 (chimeric 11C5) (antibody, IgG1, V domains shown)
VH: B2 VH with A60C
VL: B2 VL
notes: as for B2
B4: m11C5_C59Y (antibody, mouse IgG2a, V domains shown)
VH: B2 VH with A60Y
VL: B2 VL
notes: Murine IgG2a constant domains
B5: m11C5_C59V (antibody, mouse IgG2a, V domains shown)
VH: B2 VH with A60V
VL: B2 VL
notes: Murine IgG2a constant domains
B6: m11C5_C59A (antibody, mouse IgG2a, V domains shown)
VH: B2 VH
VL: B2 VL
notes: Murine IgG2a constant domains
B7: m11C5_C59S (antibody, mouse IgG2a, V domains shown)
VH: B2 VH with A60S
VL: B2 VL
notes: Murine IgG2a constant domains
B8: m11C5_C59T (antibody, mouse IgG2a, V domains shown)
VH: B2 VH with A60T
VL: B2 VL
notes: Murine IgG2a constant domains
B9: h11C5_C59A (antibody, human IgG1, V domains shown)
VH: B1 VH with Y60A
VL: B1 VL
notes: as for B1
B10: h11C5_C59T (antibody, human IgG1, V domains shown)
VH: B1 VH with Y60T
VL: B1 VL
notes: as for B1
B11: h11C5_C59S (antibody, human IgG1, V domains shown)
VH: B1 VH with Y60S
VL: B1 VL
notes: as for B1
B12: Parent Fab (Fab of h11C5_C59Y/A43S) (Fab, V domains shown)
VH: B1 VH
VL: B1 VL with A43S
notes: Fab with 8xHis tag; also called parental Fab of h11C5_C59Y/A43S
B13: K13/H2 Fab (VL-A51Y/W92I, VH-R96D) (Fab, V domains shown)
VH: B1 VH with R100D
VL: B1 VL with A43S, A51Y, W92I
notes: Fab with 8xHis tag
B14: K10/H3 Fab (VL-A51Y, VH-V51S) (Fab, V domains shown)
VH: B1 VH with V51S
VL: B1 VL with A43S, A51Y
notes: Fab with 8xHis tag
B15: K17/H3 Fab (VL-A51Y/W92K, VH-V51S) (Fab, V domains shown)
VH: B1 VH with V51S
VL: B1 VL with A43S, A51Y, W92K
notes: Fab with 8xHis tag
B16: K17 Fab (VL A51Y/W92K) (Fab, V domains shown)
VH: B1 VH
VL: B1 VL with A43S, A51Y, W92K
notes: Fab with 8xHis tag
B17: K10/H2 Fab (VL-A51Y, VH-R96D) (Fab, V domains shown)
VH: B1 VH with R100D
VL: B1 VL with A43S, A51Y
notes: Fab with 8xHis tag
B18: K17/H2 Fab (VL-A51Y/W92K, VH-R96D) (Fab, V domains shown)
VH: B1 VH with R100D
VL: B1 VL with A43S, A51Y, W92K
notes: Fab with 8xHis tag
B19: K13/H3 Fab (VL-A51Y/W92I, VH-V51S) (Fab, V domains shown)
VH: B1 VH with V51S
VL: B1 VL with A43S, A51Y, W92I
notes: Fab with 8xHis tag
B20: K13/H12 Fab (VL-A51Y/W92I, VH-M34V) (Fab, V domains shown)
VH: B1 VH with M34V
VL: B1 VL with A43S, A51Y, W92I
notes: Fab with 8xHis tag
B21: H11 Fab (VH W97F) (Fab, V domains shown)
VH: B1 VH with W101F
VL: B1 VL with A43S
notes: Fab with 8xHis tag
B22: H12 Fab (VH M34V) (Fab, V domains shown)
VH: B1 VH with M34V
VL: B1 VL with A43S
notes: Fab with 8xHis tag

Each binder was assayed against T1, human IL1RAP (hu-IL1RAP) on human cells (assay: cell-based or functional assay).
In the case of B1, the “HEK-Blue, IL-1β, IC50” value is reported as 1.03 nM and the “HEK-Blue, IL-33, IC50” value is reported as 3.75 nM.

The binders below were run against T2, hu-M-IL1RAP construct, positions … (assay: BLI (OCTET), mAb captured, 25 C).
Protocol: All samples were placed in black 96-well plates and the experiment was performed at 25° C. […] The biosensors were equilibrated in experimental buffer at 25° C. for ten minutes prior to starting the experiment.
The resulting BLI signal from analyte association and dissociation from the immobilized antibody was analyzed using the Octet Data Analysis software (Pall ForteBio). First, a reference subtraction was performed on all recorded traces using the reference well (biosensor that underwent the same steps as experimental wells but no analyte for the Association step), then all the traces were aligned to the beginning of the Association step.
B2 gave a Kd of 0.756 nM. B3 gave a Kd of 0.699 nM. B4 gave a Kd of 0.524 nM. In the case of B5, the Kd is reported as 0.604 nM. For B6, the Kd was 0.513 nM. In the case of B7, the Kd is reported as 0.598 nM. B8 showed a Kd of 1.38 nM. B1 gave a Kd of 1.34 nM. Work on B9 yielded a Kd of 2.06 nM. Work on B10 yielded a Kd of 3.26 nM. B11 was tested, and the Kd was 1.08 nM.

Target: T1, human IL1RAP (hu-IL1RAP) on human cells
Assay: cell-based or functional assay
Remark: another data set of the same source
With B12 the “HEK-Blue, IL-1β, % inhibition at 100 nM (Fab)” value (“HEK-Blue, IL-1β, % inhibition” below) was 96%, the “HEK-Blue, IL-1β, IC50 (Fab)” value was 7.45 nM and the “HEK-Blue, IL-33, % inhibition at 100 nM (Fab)” value (“HEK-Blue, IL-33, % inhibition” below) was 77%. The “HEK-Blue, IL-33, IC50 (Fab)” value was 26.4 nM, the “HEK-Blue, IL-36α, % inhibition at 100 nM (Fab)” value (“HEK-Blue, IL-36α, % inhibition” below) was 96% and the “HEK-Blue, IL-36α, IC50 (Fab)” value was 5.09 nM. With B13 the “HEK-Blue, IL-1β, % inhibition” value was 100%, the “HEK-Blue, IL-1β, IC50 (Fab)” value was 0.539 nM and the “HEK-Blue, IL-33, % inhibition” value was 98%. The “HEK-Blue, IL-33, IC50 (Fab)” value was 2.39 nM, the “HEK-Blue, IL-36α, % inhibition” value was 99% and the “HEK-Blue, IL-36α, IC50 (Fab)” value was 0.548 nM. In the case of B14, the “HEK-Blue, IL-1β, % inhibition” value is reported as 99%, the “HEK-Blue, IL-1β, IC50 (Fab)” value is reported as 0.642 nM and the “HEK-Blue, IL-33, % inhibition” value is reported as 98%. The “HEK-Blue, IL-33, IC50 (Fab)” value was 2.43 nM, the “HEK-Blue, IL-36α, % inhibition” value was 100% and the “HEK-Blue, IL-36α, IC50 (Fab)” value was 0.582 nM. For B15, the “HEK-Blue, IL-1β, % inhibition” value was 100%, the “HEK-Blue, IL-1β, IC50 (Fab)” value was 1.32 nM and the “HEK-Blue, IL-33, % inhibition” value was 98%. For the same binder, the “HEK-Blue, IL-33, IC50 (Fab)” value was 3.53 nM, the “HEK-Blue, IL-36α, % inhibition” value was 100% and the “HEK-Blue, IL-36α, IC50 (Fab)” value was 0.8 nM. In the case of B16, the “HEK-Blue, IL-1β, % inhibition” value is reported as 100%, the “HEK-Blue, IL-1β, IC50 (Fab)” value is reported as 1.59 nM and the “HEK-Blue, IL-33, % inhibition” value is reported as 96%. For the same binder, the “HEK-Blue, IL-33, IC50 (Fab)” value was 5.38 nM, the “HEK-Blue, IL-36α, % inhibition” value was 100% and the “HEK-Blue, IL-36α, IC50 (Fab)” value was 1.27 nM. With B17 the “HEK-Blue, IL-1β, % inhibition” value was 100%, the “HEK-Blue, IL-1β, IC50 (Fab)” value was 0.552 nM and the “HEK-Blue, IL-33, % inhibition” value was 99%. For the same binder, the “HEK-Blue, IL-33, IC50 (Fab)” value was 2.17 nM, the “HEK-Blue, IL-36α, % inhibition” value was 100% and the “HEK-Blue, IL-36α, IC50 (Fab)” value was 0.481 nM. For B18, the “HEK-Blue, IL-1β, % inhibition” value was 100%, the “HEK-Blue, IL-1β, IC50 (Fab)” value was 1.86 nM and the “HEK-Blue, IL-33, % inhibition” value was 97%. The “HEK-Blue, IL-33, IC50 (Fab)” value was 4.71 nM, the “HEK-Blue, IL-36α, % inhibition” value was 100% and the “HEK-Blue, IL-36α, IC50 (Fab)” value was 0.93 nM. With B19 the “HEK-Blue, IL-1β, % inhibition” value was 100%, the “HEK-Blue, IL-1β, IC50 (Fab)” value was 0.898 nM and the “HEK-Blue, IL-33, % inhibition” value was 99%. The “HEK-Blue, IL-33, IC50 (Fab)” value was 2.07 nM, the “HEK-Blue, IL-36α, % inhibition” value was 98% and the “HEK-Blue, IL-36α, IC50 (Fab)” value was 0.462 nM.

The binders below were run against T2, hu-M-IL1RAP construct, positions … (assay: SPR, Fab analyte, 25 C).
B12 was tested, and the “apparent Kd (pooled screen)” value was 0.337 nM, the “apparent koff (pooled screen)” value was 0.000468 s⁻¹ and the “apparent kon (pooled screen)” value was 1.39e+06 M⁻¹ s⁻¹. With B16 the Kd was 0.00637 nM, the koff was 3.58e-05 s⁻¹ and the kon was 5.63e+06 M⁻¹ s⁻¹.

What follows are binders tested against T2, hu-M-IL1RAP construct, positions … (assay: SPR, Fab analyte, 37 C).
Protocol: (§1) Surface plasmon resonance (SPR) analysis was used to determine binding affinity for hu-M-IL1RAP of the purified Fabs containing the selected single, double, and triple mutations in either the VL or VH regions using a BIACORE™ 8K instrument. […] For kinetics measurements, 5 nM biotinylated hu-M-IL1RAP was captured at 10 μL/min to achieve ˜50 response units in the second flow cell (FC2). FC1 was kept as a reference. […] The sensorgrams were recorded and subjected to reference and buffer subtraction before data analysis with the BIACORE® 8K Evaluation Software (version 1.1.1.7442). Association rates (kₒₙ) and dissociation rates (koff) were calculated using a simple one-to-one Langmuir binding model. The equilibrium dissociation constant (KD) was calculated as the ratio of koff/kₒₙ.
In the case of B13, the Kd is reported as 0.0227 nM, the koff is reported as 0.000115 s⁻¹ and the kon is reported as 5.08e+06 M⁻¹ s⁻¹. With B14 the Kd was 0.0242 nM, the koff was 0.000123 s⁻¹ and the kon was 5.06e+06 M⁻¹ s⁻¹. For B15, the Kd was 0.0315 nM, the koff was 0.00012 s⁻¹ and the kon was 3.81e+06 M⁻¹ s⁻¹. With B17 the Kd was 0.0201 nM, the koff was 0.000111 s⁻¹ and the kon was 5.54e+06 M⁻¹ s⁻¹. With B18 the Kd was 0.0293 nM, the koff was 0.000121 s⁻¹ and the kon was 4.15e+06 M⁻¹ s⁻¹. B20 was tested, and the Kd was 0.0363 nM, the koff was 0.000178 s⁻¹ and the kon was 4.9e+06 M⁻¹ s⁻¹. With B19 the Kd was 0.0211 nM, the koff was 0.000109 s⁻¹ and the kon was 5.17e+06 M⁻¹ s⁻¹.

Target: T2, hu-M-IL1RAP construct, positions …
Assay: SPR, Fab analyte, 37 C
Remark: another data set of the same source
Protocol: as §1
For B12, the “apparent Kd (pooled screen)” value was 0.268 nM, the “apparent koff (pooled screen)” value was 0.00163 s⁻¹ and the “apparent kon (pooled screen)” value was 6.08e+06 M⁻¹ s⁻¹. For B21, the Kd was 0.46 nM, the koff was 0.00441 s⁻¹ and the kon was 9.58e+06 M⁻¹ s⁻¹. B16 gave a Kd of 0.0441 nM, a koff of 0.000159 s⁻¹ and a kon of 3.6e+06 M⁻¹ s⁻¹. B22 gave a Kd of 0.305 nM, a koff of 0.00174 s⁻¹ and a kon of 5.7e+06 M⁻¹ s⁻¹.
